{"source": "patent US20080213836", "key": {"[1]": {"test_system": "recombinant fusion protein of Medaka trypsinogen"}, "[2]": {"test_system": "T1, Gly-Asp-Asp-Asp-Asp-Lys-β-naphthylamide", "T1 sequence": "GDDDDK"}}, "data": [{"substance": "Medaka EP-2 serine protease domain", "values": [{"measurement": "conversion of trypsinogen to active trypsin", "setting": "[1]", "result": "The trypsinogen was converted to active trypsin by EP-1 faster than by EP-2"}, {"measurement": "enzyme activity for GD4K-βNA", "setting": "[2]", "result": "Both enzymes showed maximal activities for GD4K-βNA at pH 8"}]}]}
